pKd: −log10 of the molar value.
What follows are substances tested against TG6 TCR, acid-base leucine zipper stabilized, soluble, biotinylated (mouse) (assay: SPR). Conditions: not given.
Substance “soluble L^d-HF10 with alanine at peptide position 5 (peptide-MHC)” has a pKd of 5.73. For “soluble L^d-HF10 with alanine at peptide position 2 (peptide-MHC)”, the pKd was 5.74. “soluble L^d-HF10 (L^d α1-α3 with HF10 fused via a linker to β2m, disulfide-trapped) (peptide-MHC)” was tested, and the pKd was 6.40. With “soluble L^d-HF10 with alanine at peptide position 9 (peptide-MHC)” the pKd was 3.77. Work on “soluble L^d-HF10 (HF10 fused via a linker to β2m, disulfide-trapped), wild-type peptide (peptide-MHC)” yielded a pKd of 6.38. In the case of “soluble L^d-HF10 with alanine at peptide position 4 (peptide-MHC)”, the pKd was 5.62. Substance “soluble L^d-HF10 with alanine at peptide position 1 (peptide-MHC)” has a pKd of 5.99.

What follows are substances tested on tetramer+ CD8 T cells (assay: Immunization with peptide-loaded dendritic cells, expansion of tetramer+ CD8 T cells). Conditions: F1 (H2^bxd) mice, 5x10^6 dendritic cells loaded with 1μM peptide s.c., spleen 7 days post immunization, versus numbers in naive mice.
Assay type: in vivo
Procedure: Bone marrow-derived dendritic cells from male mice were incubated with 1μM of peptide for 3 hours at 37°C. Cells were washed and 5x10^6 peptide-loaded dendritic cells were injected subcutaneously into naive F1 (H2^bxd) female mice. Mice were sacrificed 7 days post immunization. Peptide sequences: HF10: HPGSVNEFDF; ROP5: YAVANYFFL; GRA4: SPMNGGYYM.
Figure 1 Characteristics of the L^d-HF10 specific T cell response. (A) T. gondii-specific CD8 T cells were quantified by pMHC tetramer staining and flow cytometry of splenocytes at different time points after intraperitoneal infection of F1 (B6xB6.C) mice. Fold change between naive and expanded T cells was calculated using the average number of tetramer+ cells in each population in naive mice (GRA6 = 74.4, ROP5: 654.9, GRA4: 1330). (B) Flow cytometric analysis of size (FSC or forward scatter) or expression of activation and effector markers (CD71, KLRG1, and CD25) on gated tetramer^+ splenic CD8 T cells at day 5 post infection. (C) Mice were immunized with bone marrow-derived dendritic cells loaded with the indicated peptides. Expanded tetramer^+ CD8 T cells were quantified by tetramer staining of splenocytes 7 days post immunization (open circles). Numbers of tetramer^+ CD8 T cells in the spleen were quantified by tetramer enrichment of naïve mice and were used to calculate the fold expansion of each antigen-specific T cell population (closed circles). Statistical significance of differences in fold change between the three groups was calculated using Mann-Whitney tests. GRA6 vs. GRA4: p < 0.0001, GRA6 vs. ROP5: p < 0.0001, GRA4 vs. ROP5: p=0.0002. Statistical significance between tetramer+ T cell populations was calculated by two-way ANOVA. The interaction p-values are as follows: GRA6 vs. GRA4: p < 0.0001, GRA6 vs. ROP5: p < 0.0001, GRA4 vs. ROP5: p=0.99. (D) The frequency of Vβ2 usage amongst L^d-HF10 specific splenic CD8 T cells tetramer enriched from naïve mice or found in T. gondii-infected mice was determined by flow cytometry. […] Clonal diversity in L^d-HF10 specific CD8 T cells was analyzed using the TCRdist algorithm ([40]). […]
For SPMNGGYYM [GRA4], the “Fold expansion of tetramer+ CD8 T cells” value was 50 x. With YAVANYFFL [ROP5] the “Fold expansion of tetramer+ CD8 T cells” value was 300 x. In the case of “HPGSVNEFDF [HF10, 10mer peptide from the C-terminus of T. gondii protein GRA6, presented by MHC-I L^d]”, the “Fold expansion of tetramer+ CD8 T cells” value was 4000 x.

Each substance was assayed against H2-L^d on TAP-deficient RMA-S.L^d cells (assay: flow cytometry on cells (RMA-S.Ld surface Ld stabilisation)). Conditions: read at the highest peptide concentration, log [peptide in µM] = 0; parent: est. 670; read off a plot.
Substance HF10 peptide p7A has a response of 670 MFI. HF10 peptide p8A was tested, and the response was 120 MFI. Substance HF10 peptide p2A has a response of 100 MFI. HF10 peptide p1A showed a response of 550 MFI. For HF10 peptide p5A, the response was 400 MFI. Substance HF10 peptide p3A has a response of 690 MFI. Substance HF10 peptide p10A has a response of 60 MFI. In the case of HF10 peptide p9A, the response was 430 MFI. In the case of HF10 peptide p4A, the response was 720 MFI. HF10 peptide p6A showed a response of 440 MFI.

The substances below were run on TG6 TCR (assay: Surface plasmon resonance of L^d-HF10 (WT and alanine variants) binding to immobilised TG6 TCR). Conditions: SPR, BIAcore SA chip, ~2000 RU biotinylated TG6 TCR; soluble L^d-peptide injected; two-state reaction fit.
Parameters: species or system mouse
Source text: We used two systems to generate L^d-HF10. For biophysical and crystallographic studies of pMHC, we produced soluble L^d-HF10 by baculovirus-infected insect cell expression ([26]). The DNA encoding L^d (α1-α3) and HF10 (or alanine substituted variants) fused via a linker to β2m were cloned into pbac plasmid under polyhedrin and p10 promoters to produce secreted soluble Ld-HF10 from Hi5 insect cells. In this construct, L^d Tyr 84 and Gly at peptide p12 position from the linker that attaches β2m to pHF10 were mutated to cysteines to form a disulfide bond ([27]). Secreted L^d-HF10 in insect cell medium was captured with immunoaffinity chromatography and further purified by GE Healthcare FPLC Superdex 200 10/300 GL size exclusion column. For the crystallography of the TCR/peptide/MHC ternary complex, we produced the wild type L^d variable region (α1-α2). L^d (α1-α2) was expressed in E. coli BL21 as an inclusion body, solubilized in 8M urea, and refolded with synthetic HF10 peptide (HPGSVNEFDF, ordered from Peptide 2.0 Inc.) ([28], [29]). Refolded L^d-HF10 was further purified with a HiLoad Superdex 200 26/600 size chromatography column.
TG6 α and β TCR chains were also produced by both baculovirus insect cell and bacterial expression systems. […]
Approximately 2000 RU of biotinylated TG6 TCR was captured in the flow cells of a BIAcore streptavidin (SA) BIAsensor chip. Various concentrations of insect cell-produced L^d-HF10 and its mutated variant peptides were injected into the sensor chip and the association and dissociation kinetics were recorded and then corrected for the fluid phase SPR signal using the data from the biotinylated mouse BDC2.5 TCR. Kinetics was analyzed with BIAcore BIAEval 4 software. […]
(A) Corrected surface plasmon resonance (SPR) data for the binding of various concentrations of soluble L^d-HF10 to ~2000 RU of biotinylated TG6 TCR immobilized in flow cell on SA sensor chip. […] Upregulation of surface CD25 and CD44 in response to TCR stimulation was measured by flow cytometry. […]
With “HPGSVNEFDF [HF10, 10mer peptide from the C-terminus of T. gondii protein GRA6, presented by MHC-I L^d]” the ka2 was 0.002 s⁻¹, the kd1 was 0.014 s⁻¹ and the kd2 was 0.005 s⁻¹.

— PMC9372435, “Peptide Centric Vβ Specific Germline Contacts Shape a Specialist T Cell Response” (Frontiers in Immunology, 2022)
